In article PMC3409459, “Absorption, distribution, metabolism and excretion of peginesatide, a novel erythropoiesis-stimulating agent, in rats” (Xenobiotica; the Fate of Foreign Compounds in Biological …, 2011):

Tests used:
[1] = design: species or system male Sprague-Dawley rats; conditions: rat, in vivo, iv
Procedure: (§1) The metabolite profiling in the biological samples from rats dosed with [^14C]-peginesatide was performed by high-performance liquid chromatography (HPLC). The radiolabeled materials in the samples of plasma and aqueous homoge-nates of tissues and feces were extracted with five volumes of methanol containing 0.1% of trifluoroacetic acid (TFA), mixed and centrifuged at 1500g at 4°C for l0 min to obtain supernatant. A portion of the supernatant was counted to estimate the extraction recovery of [^14C]-peginesatide and its related compounds in the biological samples. The rest of the supernatant was evaporated to dryness under a nitrogen gas stream. The residue was re-dissolved in a small volume of equal parts mobile phase [MP(A)] and B [MP(B)] for chromatographic analysis. The HPLC system (Simadzu, Kyoto, Japan) consisted of a LC-lOADvp pump, a CTO-lOACvp column oven, an SPD-lOAvp UV detector, and an SCL-lOAvp system controller. […] A mixture of 0.1% TFA aqueous solution and 0.1% TFA in methanol solution were used for MP(A) and MP(B), respectively. The flow rate was 0.5mL/min, and the peaks were monitored by a UV absorption detector at 215 run. The time for the gradient elution was as follows: the concentration of MP(B) was increased from 50 to 80% and from 80 to 83% over a period of 2-10min and 10-20min, respectively. […] The effluentwas collected into 0.5mL size fractions, followed by counting of the radioactivity (LSC). Under these conditions unchanged peginesatide and mono-PEG eluted at approximately 22 and 10 min, respectively.
The urine and fecal samples were obtained from the animals (n = 3) dosed in the mass balance study. Urine and fecal samples were collected every 24h and were combined into 2 aliquots (0-168 and 168-336h) for metabolite analysis. The urine and fecal samples were subjected to analysis by HPLC-fraction collection. Urine sample radioactivity was measured by LSC and fecal homogenate samples were measured by LSC following combustion.

[2] = Plasma total radioactivity pharmacokinetics after single IV [^14C]-peginesatide (LSC); type: in vivo, male Sprague-Dawley rats; conditions: single 5 mg-kg^-1 IV [^14C]-peginesatide, n=3
Procedure: Total captured radioactivity was subsequently measured via LSC.
The plasma samples were analyzed for total radioactivity using LSC.
Noncompartmental PK parameters for peginesatide and metabolites were generated using WinNonlin ver. 4.0, Pharsight Corporation (Mountain View, CA). The maximum plasma concentration (Cmax) and their times of occurrence (tmax) were obtained directly from the mean plasma concentration vs. time profiles. The areas under the plasma concentration-time curves […] were estimated by the linear trapezoidal rule - by adding all the area portions under the curve from time zero to the time of the last observed plasma concentration (tn). Elimination rate constants (kz) were estimated by fitting a linear regression of log mean concentration against time data in the terminal exponential phase (at least 3 data points). Apparent terminal half-life (t1/2) was calculated as In2/λz. The AUC0-inf was calculated as the sum of AUC0-t and Cobs/λz, where Cobs, was the actual concentration at the time of the last quantifiable concentration. The plasma clearance (CL) for peginesatide was estimated as the ratio of dose/ AUC0-inf. The mean residence time (MRT) was calculated as the ratio of AUMC0-inf/AUC0-inf, where AUMC0-inf was the area under the first moment curve from the time zero to infinity. The volume of distribution at steady state (Vss) was estimated as CL x MRT.

[3] = Quantitative whole body autoradiography (QWBA) tissue distribution; type: in vivo, male Sprague-Dawley rats; conditions: for the radiolabel distribution and QWBA studies
Procedure: Tissue distribution of radioactivity was assessed by quantitative whole-body autoradiography (QWBA) in addition to determination of radioactivity tissue levels by LSC. At various time points following the administration of the desired QWBA target dose of 100 uCi/kg [^14C]-peginesatide, equating to a 17mg/kg dose of peginesatide, the rats were anesthetized with isoflurane and blood (−3-4 mL) was collected via cardiac puncture. Anesthetized rats were sacrificed by immersion in a hexane dryicebath. Carcasseswere embedded in 2% carboxymethylceilulose over solid CO2 to ensure the block was retained frozen, and then stored at −20°C until sectioning. In addition, ^14C radioactivity standards were embedded with each carcass to provide a context for quantification and for quality control purposes.
Samples were sectioned onto adhesive tape (Nakagawa NA-70 MAG, Japan) at five levels of interest in the sagittal plane, with all major tissues, organs, and biological fluids represented. […] To quantitate radioactivity in tissues, a calibration standard curve was constructed using American Radiolabeled Chemicals, Inc ARC 146 standards. The autoradiographic image data for the calibration standards and specified tissues, organs, and fluids were quantified using Imaging Research Inc. AIS software. […]

[4] = In vivo metabolite profiling, plasma and tissues at 14 days; design: species or system male Sprague-Dawley rats; conditions: rat, iv, 5 mg/kg
Procedure: as §1
A single dose of [^14C]-peginesatide at 5 mg·kg^−1 was administered to male Sprague-Dawley rats (n = 9) by IV injection. At 14 days after dosing, animals were euthanized and samples of plasma, liver, spleen, kidneys, testes, and bone marrow were collected. Plasma and tissue extract samples were analyzed for levels of total radioactivity, peginesatide, and potential metabolites using LSC. Tissue homogenates (prepared in saline at a concentration of 20% [w/v] for the liver, kidneys and testes and 10% [w/v] for the spleen and bone marrow) were analyzed for radioactivity by LSC following combustion. The concentration of radioactivity in the blood, plasma, and tissues was calculated and expressed as ug equiv·g^-1 or mL based on the LSC counts and the specific activity of the dosing solution.

Peginesatide
Percent dose excretion, Feces 0–168 h [1]: 1.9 % dose | Percent dose excretion, Feces 0–336 h [1]: 1.9 % dose | Percent dose excretion, Feces 168–336 h [1]: LOQ (0) | Percent dose excretion, Urine 0–168 h [1]: 23.3 % dose | Percent dose excretion, Urine 0–336 h [1]: 27.5 % dose | Percent dose excretion, Urine 168–336 h [1]: 4.2 % dose | Cmax, total radioactivity [2]: 150 ug equiv·mL^−1 | bone marrow to bone ratios [3]: 11-25 | Day 14 concentration, Bone marrow [4]: 3.22 μg equiv·g^−1 or mL | Day 14 concentration, Liver [4]: 5.63 μg equiv·g^−1 or mL | Day 14 concentration, Plasma [4]: 1.94 μg equiv·g^−1 or mL | Day 14 concentration, Spleen [4]: 14.3 μg equiv·g^−1 or mL | Day 14 concentration, Testes [4]: 2.68 μg equiv·g^−1 or mL | percent radioactivity, Bone marrow, Day 14 [4]: 58.2% | percent radioactivity, Kidneys, Day 14 [4]: 54.1% | percent radioactivity, Liver, Day 14 [4]: 63.2% | percent radioactivity, Spleen, Day 14 [4]: 61.2% | percent radioactivity, Testes, Day 14 [4]: 66.0% | share of total tissue radioactivity across liver, spleen, kidney, testes and bone marrow [4]: 54-66%
